From PMC7017424, “Effects of Substrate-Binding Site Residues on the Biochemical Properties of a Tau Class Glutathione S-Transferase from Oryza sativa” (Genes, 2019)

Columns and labels:
[1] = biological target: T1, OsGSTU17 (Oryza sativa, UniProt Q93WY5); assay: absorbance at […] nm, initial rate […] s, non-linear regression (Hyper32); format: biochemical; conditions: 1.0 mM GSH fixed, NBD-Cl 0.1-1.0 mM, 25 °C; apparent Km; wild-type value 'detected again', obtained from Yang et al. [31]; read-out: NBD-Cl / K m /; cited from earlier work
T1 construct: about 25 kDa subunit; dimeric enzyme; mutants L112A and W165A expressed at 20 °C
T1 sequence (Q93WY5 1-223): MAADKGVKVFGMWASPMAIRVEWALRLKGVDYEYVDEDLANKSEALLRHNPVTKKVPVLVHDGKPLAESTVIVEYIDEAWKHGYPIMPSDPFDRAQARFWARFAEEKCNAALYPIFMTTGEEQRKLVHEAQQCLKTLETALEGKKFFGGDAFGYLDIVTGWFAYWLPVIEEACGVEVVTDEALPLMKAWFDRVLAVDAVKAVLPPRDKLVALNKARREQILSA

[2] = substrate: O=[N+]([O-])c1ccc(Cl)c2nonc12; assay: purified protein; format: biochemical, Oryza sativa; conditions: 1.0 mM GSH fixed, NBD-Cl 0.1-1.0 mM, 25 °C, apparent Km

O=[N+]([O-])c1ccc(Cl)c2nonc12 [NBD-Cl, 7-chloro-4-nitrobenzo-2-oxa-1,3-diazole]
Km [1]: 324 ± 16 µM

B1: OsGSTU17 (Oryza sativa Japonica Group; W161A) (protein)
chain: MAADKGVKVFGMWASPMAIRVEWALRLKGVDYEYVDEDLANKSEALLRHNPVTKKVPVLVHDGKPLAESTVIVEYIDEAWKHGYPIMPSDPFDRAQARFWARFAEEKCNAALYPIFMTTGEEQRKLVHEAQQCLKTLETALEGKKFFGGDAFGYLDIVTGAFAYWLPVIEEACGVEVVTDEALPLMKAWFDRVLAVDAVKAVLPPRDKLVALNKARREQILSA
notes: about 25 kDa subunit; dimeric enzyme; mutants L112A and W165A expressed at 20 °C
Km ([2]; Km above tested range): 1117 ± 22 µM | Vmax ([2]; Km above tested range): 0.594 µM/min/mg | kcat ([2]; Km above tested range): 0.999 s⁻¹ | kcat/Km ([2]; Km above tested range): 894 M⁻¹ s⁻¹

B2: OsGSTU17 (Oryza sativa Japonica Group; M17A) (protein)
chain: MAADKGVKVFGMWASPAAIRVEWALRLKGVDYEYVDEDLANKSEALLRHNPVTKKVPVLVHDGKPLAESTVIVEYIDEAWKHGYPIMPSDPFDRAQARFWARFAEEKCNAALYPIFMTTGEEQRKLVHEAQQCLKTLETALEGKKFFGGDAFGYLDIVTGWFAYWLPVIEEACGVEVVTDEALPLMKAWFDRVLAVDAVKAVLPPRDKLVALNKARREQILSA
notes: as for B1
Km ([2]; Km above tested range): 3661 ± 843 µM | Vmax ([2]; Km above tested range): 0.83 µM/min/mg | kcat ([2]; Km above tested range): 0.809 s⁻¹ | kcat/Km ([2]; Km above tested range): 221 M⁻¹ s⁻¹

B3: OsGSTU17 (Oryza sativa Japonica Group; N109A) (protein)
chain: MAADKGVKVFGMWASPMAIRVEWALRLKGVDYEYVDEDLANKSEALLRHNPVTKKVPVLVHDGKPLAESTVIVEYIDEAWKHGYPIMPSDPFDRAQARFWARFAEEKCAAALYPIFMTTGEEQRKLVHEAQQCLKTLETALEGKKFFGGDAFGYLDIVTGWFAYWLPVIEEACGVEVVTDEALPLMKAWFDRVLAVDAVKAVLPPRDKLVALNKARREQILSA
notes: as for B1
Km [2]: 781 ± 34 µM | Vmax [2]: 0.364 µM/min/mg | kcat [2]: 0.266 s⁻¹ | kcat/Km [2]: 341 M⁻¹ s⁻¹

B4: OsGSTU17 (Oryza sativa Japonica Group; F162A) (protein)
chain: MAADKGVKVFGMWASPMAIRVEWALRLKGVDYEYVDEDLANKSEALLRHNPVTKKVPVLVHDGKPLAESTVIVEYIDEAWKHGYPIMPSDPFDRAQARFWARFAEEKCNAALYPIFMTTGEEQRKLVHEAQQCLKTLETALEGKKFFGGDAFGYLDIVTGWAAYWLPVIEEACGVEVVTDEALPLMKAWFDRVLAVDAVKAVLPPRDKLVALNKARREQILSA
notes: as for B1
Km ([2]; Km above tested range): 3866 ± 871 µM | Vmax ([2]; Km above tested range): 0.869 µM/min/mg | kcat ([2]; Km above tested range): 1.57 s⁻¹ | kcat/Km ([2]; Km above tested range): 407 M⁻¹ s⁻¹

B5: OsGSTU17 (Oryza sativa Japonica Group; L112A) (protein)
chain: MAADKGVKVFGMWASPMAIRVEWALRLKGVDYEYVDEDLANKSEALLRHNPVTKKVPVLVHDGKPLAESTVIVEYIDEAWKHGYPIMPSDPFDRAQARFWARFAEEKCNAAAYPIFMTTGEEQRKLVHEAQQCLKTLETALEGKKFFGGDAFGYLDIVTGWFAYWLPVIEEACGVEVVTDEALPLMKAWFDRVLAVDAVKAVLPPRDKLVALNKARREQILSA
notes: as for B1
Km ([2]; Km above tested range): 1487 ± 79 µM | Vmax ([2]; Km above tested range): 0.896 µM/min/mg | kcat ([2]; Km above tested range): 1.75 s⁻¹ | kcat/Km ([2]; Km above tested range): 1180 M⁻¹ s⁻¹
